Assay: label from the status in PepcDB records

In the case of “QLAEVEVKKFKQMTEAIGPSTIRDLAVAGPEMQVKLLQSLGLKSTLITDGSTPINLFNTAFGLLGMGPEGQPLGRRVASGPSPGEGISPQSAQAPQAPGDNHVVPVLR”, the protein production is reported as “failed”.

For “MKELNDIEVTCVSGGTLSGMIVGAVDGAATGMAIGGKWGGAGGFGFGALSQLVGLIVPTAMGAIAGGTVGLFTNAETAVGYLGQYRENFGPGDVGRTTI”, the protein production was “failed”.

With “MHHYRVSGWTLATEIPLPHLFPCSAPAGEAAADITLRQGPVPPPPVPLRLDRDGIQVGADGHTVIDIPNCVRIGLTGGRDIMVDPAPGASWPEIQTWLLGPGLGVICHQRGVLPLHACAIRTGKGGLAIVGNSGAGKSTTATALVQRGHRLLGDDVLVVDPDTGLAQPCFPMVKLWDSSRSALDIGQEGQQSVGGKIGKWHMPMLAAFDPVPRPLSAIVHLRADPAARRPVLTRWPRPHAAAVLDAMTYRVYLADALHGRRHVLSAATRLAAHVPVWELVRTADFADLAEMLDMLEGLAGALEHHHHHH” the protein production was “failed”.

For “MTARDDETIAFYSGHATAYTSRGQAPDRPHLETFLARLRAGAKILELGCGGGQDSEYMLSAGFDVHPTDGTPDIAKAAQARLGIPVRTLLFENIEDAALYDAVWANACLLHVPRLALPGIIGRIHTALKPGGVFYASFKAGEVEGRDTFGRYYNYPSKAWLEETYGQFAWTEVEIEARQGSGYDKLPTDWLHVTATKALEHHHHHH”, the protein production was “not failed”.

For “MSEAVPSVVAIDIGTHKVSVLIGKVHAPDNIQVIGMATARNRGMNKGKIVSLDKVISAIKNAVAEAENMAECRVHTAWVSIPTTELQSFYASGRIPIAKADHTITTNEVVRALELAKASHVTPDYYLASAVPLGFELDDSSEWVQNPINMSAHSMTGHYQLMMMPISIMQNLDRAMKGASIGVEKMVVSCLATAEASLLKDEKEYGVCLLDIGAGTTNIAVYLDGRLALARTLQRGGENVTRDIAAVLQTTTEEAERIKILHGCVDLSAIKPDQMIQVQAIDGPQTISRIELAEIIIARYEEILGQVRDELERSGAIHGLYHGVVLTGDACQIEGMISLARRILGVSAHLGNPPLQVYADDQHQASIRRSMYATAAGLLMFSQSELQDTVEDSEEASQRSLWNRVANGWNTLNTKLKAIF”, the protein production was “failed”.

In the case of “KGMIRPRGLNQQRYVKEVLSNDINFGIGPAGTGKTYLAVACAVDALEREQIRRILLVRPAVEAGEKLGFLPGDLAQKIDPYLRPLYDALYEMLGFEYVAKLIEKQVIEVAPLAYMRGRTLNNSFIILDESQNTTVEQMKMFLTRIGFGSTAVITGDITQVDLPKGTRSGLTHVIDVLKDVPGISFTHFKPKDVVRHPLVQRIVEAYERFDDQLSDGPSGNNG”, the protein production is reported as “not failed”.

For “MDHKDYSRQNAERRLLLSKDEERIRDELEMEIERNLEGEFKDGIYNLALKLRRLYEQRREREELFDVSMRKSKRVLEVNINIKMEGDTKIEITEKKKEVDNEKTKKAENSDKRKKFVAVGEDKTGKEKMKNQTRAHELRWKW”, the protein production was “failed”.

With “HKEDKEDFAELSGIAVPAEITAEDGTMFKEALLFTHRGLSGPSVLQISSFWKAGQKVSINLVPNEDIALLLERSLEKHPNQSLKNTLAKVLPKRLVEVLIERKELMDKPLKQFNPKELASVVERLENWSIAPNGTEGYRTAEVTLGGVDTDHLSSKTMECKNIKGLYFIGEVMDVTGWLGGYNFQWCWSSGFVAGQWV” the protein production was “failed”.

With “MLMLEREKLARLIKKRSLKVADEPVFKLSSGKLSRYYVDLKQITFDPEGDYLIGKAMYELVKEFNPDACGGLTLGADPIAYAIAFVSLMDSNPIKPFVVRKEPKGHGMKRQIEGLLNPGERVAVLEDVVTTGSSALKAVKACREYGLEVIGVFAVVDREEGGRENIEKEGIPLYSLFKLSELL” the protein production was “not failed”.

For “MRPLEDDEPTVVGPYRLLGRLGSGGMGRVYLGRSAGGRTVAVKIVHPHFALDEEFRARFRREVAAARRVGGAWTAPVLDADPEARVPWVATAYAAGPSLTAAVADGGPLPAHSVRALGAGLGEALAAVHELGLVHRDVKPSNVLLTLDGPLLIDFGIARATGGTSPTQSGGGTASLTSTGVSIGSPGYMSPEQILGKGVTGAADVFSLGAVLAYATTGQPPFPGDSSAALLYKVVHEEPNLDGLDDGELRELVASCLAKDPSARPAPAEVARRLAPEGAARLVTGGWLPGALVERVSRSAVRLLNLEAGESATGASGPVGFSRPSVTAGGDAGVATPASGVFGPPPVMPAPTSPSYPPSPPAPAPAPSPALLSVPGPRHPGPPDDDPGAGTGTTRPPGRLALSVAATSTQGAQGRGRRISCTVALAVAGALAAVTVGSVFVLDLLPGSGNDANNAGGNEASHDPPAATPGGLPARYLGTWEGQAAALDGKLPLGTFRITIKQAKAGQELGRLRQTDALGGVCVDVITLKKVTEKQLVAGSAGAEGNHDGCNPAPTTVTFTPVGDDLDYASKSEESGRPTARLSKVG”, the protein production was “failed”.

In the case of “MSYNFEEERVIKEIREKNAKRVLLQFPEGLKYFSIDIVKKLREKLPNVNFIISGEPSWGACDIAEDEAQQVNADLIIHFGHTPYTWYYPKFPTIFINAESNLDISENALHSLENDISKYNGRKISLTATLQHVRLLSKIKSFLEDKGYDIVIGKPSNRFMFDGQVLGCDYKAAEVEADIYVIVSGGLFHALGLGLATNKPTIKLDPYLQKSEDITNDVRKILKVRYGKILQALDKRSWVIIQGVKVGQNRPNMIKYFYDKLTEKGYDVFTVTNKVLTLDILRNLDRNYIDVFLVTSCPRLPIDDLYNYEKPVLTPGEAKMIINNSLEPYIFPW”, the protein production is reported as “failed”.

With “MRSLMATRAKPNKKQNASARGKKPAWLGGIGLRQVRMFCGLVLFTYLLSHFLNHALGNISPEALHAGVLWHLEIWQFLPVAILFYGSVTVHAGLGLWALYQRRQFRWKTLEPLQLVLGLSVPLMIYSHVIVMRLGNVLYDQDRLYPQVLYNYFVASPSYRAWLMVAVMLIAWTHGCIGLYVWLRIKPAFRRAMPWLLAAAVLIPTLALLGFYQGGRTVAREAASPQWQANNLAPANLGTPEQQQTLEAIGNGFLIFYLGLIALALIARAVRAIIERRGGMVRLTYDGERSIRVPKGLTVLEATQRHNIPHASACGGRARCSTCRIRVLGDPATLPPPSPREAFVLASIGTGDDPSIRLACQLKPTQDLTFLPVFPPRNVAAARKAARAARIGEERYLVSMFVDMRGSTKLAESRLPFDTVFIVNRFLGAVSRSVIACGGQPNQFVGDGMLALFGLAETPREACRNAVRAAAAIGAAIDELNNFLGHDLPEPIRFGIGIHSGEVVVGEIGYRDHMVFTALGDSVNVASRLQDMTKSLGCETLLSDELRATAGLSEQALPTLELEIRGRTEPMLVCVVERAGDLVAVLNEDLVLA” the protein production was “failed”.

For “PFKESQARGLLQDNMANSYNGGDFEDGLLNLSKEVFPTDKYLYQDGQFLDKKTINAYLNPKYTKREIDKMSEKDKKDKKANENLGLNPSHEGETNPEKIAEKSPAYLSNILEQDFYGGGDTKGKNIKGMTIGLAMNSVYYYKKEKDGPTFSKKLDDSEVKKQGKQMASEILSRLRENDDLKDIPIHFAIYKQSSEDSITPGEFITQATAEKSQTKLNEWHNINEKSALLPSSTAADYDENLNNNFKQFNDNLQSYFSNFTQAVGKVKFVDKKPQRLVVDLPIDYYGQAETIGITQYVTEQANKYFDKIDNYEIRIKDGNQPRALISKTKDDKEPQVHIYSN”, the protein production was “not failed”.

In the case of “MADTRPERRFTRIDRLPPYVFNITAELKMAARRRGEDIIDFSMGNPDGATPPHIVEKLCTVAQRPDTHGYSTSRGIPRLRRAISRWYQDRYDVEIDPESEAIVTIGSKEGLAHLMLATLDHGDTVLVPNPSYPIHIYGAVIAGAQVRSVPLVEGVDFFNELERAIRESYPKPKMMILGFPSNPTAQCVELEFFEKVVALAKRYDVLVVHDLAYADIVYDGWKAPSIMQVPGARDVAVEFFTLSKSYNMAGWRIGFMVGNKTLVSALARIKSYHDYGTFTPLQVAAIAALEGDQQCVRDIAEQYKRRRDVLVKGLHEAGWMVEMPKASMYVWAKIPEPYAAMGSLEFAKKLLNEAKVCVSPGIGFGDYGDTHVRFALIENRDRIRQAIRGIKAMFRADGLLPASSKHIHENAE”, the protein production is reported as “failed”.

With “MRLLVAFAVIYFISISPVCAENTASTINIPTPAIESPLASKSLLLDISLIGQEKLVTVGQHGHILLSNDGKKWQQANVPVQVTLTNVFFLNEQLGWAVGHDATILHSQDGGLNWQVQQYLPLLEKPLFDIYFKNPQQGIAVGAYGQVFRTNDGGSTWQNEFHQEILLADDVEYLNELKAEDEAAYLDEITFILPHFNRLVQDGGSLFLLGETGLLAKSDDFGLTWQQFDNFYQGSFFSLARTKTGNVLVAGLRGHVFRSLNHGSQWDEVPTNTTALLNDIVFANDERIFILGNNGMLLISTDDGESFSKIPQQDGKTLIAGVWFKGQLIAVSDVGIKVVDLSQE” the protein production was “failed”.
